Consider 28 sequences from the domain aggregation screens of Martell et al. (2025).

The data set in a line: soluble fraction after stress (log2 fold change); higher = more stays soluble; pooled small domains, quantitative proteomics. The settings on record: stress: pH 4. In short, it runs like this:
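Values are on a log2 scale, where higher means more of the domain stayed soluble after pH 4 stress. They are fold changes in the soluble amount of each domain from pooled custom libraries, measured by high-throughput quantitative proteomics. The fold change is taken to reflect aggregation propensity.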

Turning to “HMDGVSLLFKLMETLPEQQKTILHLRDVEQLEFAEIAKITNTSQANVRVALSRARKKIKDLLLKQY”, the “soluble fraction (log2)” value is -1.31.

In the case of “HMDGVYLKSLKQTEQHIHWSGYAQSNAWVSTLMRNLDASPWFESPLLIEIKAATINNSRSNEFDLNVRL”, the “soluble fraction (log2)” value is 0.102.

On to “HMDGYTVYTNWGSDTNVARSDQQIQSQIPQLSGATIVGVWTKPIATGGTSYKIRYRTNSGAFTEIDVDQ”, for which the “soluble fraction (log2)” value is -0.0816.

“HMDHKTKLQEVLQKSGDVFIEYRLIKEEGPAHERIFWIEVYVDDQLIGTGQGKSKKLAEQAAAENALAALE”: the “soluble fraction (log2)” value was -1.15.

“HMDIEHREMKLQKLVITADSPLVGKTLKESNVRQRYNFMVVGVEEGQKNLTMINPNRRFEVGDIVWVVGEE”: the “soluble fraction (log2)” value is -0.204.

“HMDIFGREAEVEQILQEVRFGDDPHYRLSIGILPVTGHAGAGKTALVRFIFHHEVARAEFTVRMWVHV”: the “soluble fraction (log2)” value is -0.998.

For the sequence “HMDIGKNIQTIRYANKLTQDQVIAKLNLMGISMSKSTYAKLETNRMNIKVSELVALAKIFHTDINAF”, the “soluble fraction (log2)” value is -0.274.

For “HMDIGTYTVTASALNIRQYPTASSAKTGSYPNGSIVTIYEYLTDGSWGRTDDGWISMNYVSRRY”, the “soluble fraction (log2)” value is -1.37.

On to “HMDIHSEEYILGQNIRKYRLRLGWSQADLSNAVDIDRADISKYENGAKGIMSSTLLRKFAKALGVSMDALM”, for which the “soluble fraction (log2)” value came to 0.0187.

Regarding “HMDILPRMVASEMRAVGVPPERMTREEKGTVIRNLMNAGIHQMKGAVVEIARQLHLSEPTVYRYIKREKG”, the “soluble fraction (log2)” value is -0.177.

For the sequence “HMDINMELGKNIRRLRKLNNLTQQSLANQMNRSKTLIALWEKGERDPSSIDLKRLSEIFNVRADDIIG”, the “soluble fraction (log2)” value was -0.00935.

Regarding “HMDIRMLLSDREEEIMILLSKGLSISEAANRMQIGQASAATYLNRARRKLKAETVRQAVAIWTGD”, the “soluble fraction (log2)” value is -0.422.

Consider “HMDISAFDTEFIISKFGGIRPMAQKLGVPVSTVQGWKQRQTIPQNRMGDILEAAKNYNLELTP”, for which the “soluble fraction (log2)” value came out at 0.114.

Take “HMDISPAAKQRLALIQPLLEKNAEAITDRKLRNAVAKDIANNQNTTVRRVLRLYYRYLATGQVM”: the “soluble fraction (log2)” value worked out at 0.158.

Turning to “HMDIVIPIQVKNVSSGEVLDFPSIRAAARDLKFPKTTISLGVRYAGEKAYKGFVMRYRSDDPWPIVQES”, the “soluble fraction (log2)” value worked out at 0.103.

As to “HMDIYLDEVNRKILHLLSQGIKTRSLREYINLSMSAIEKRKKHMKELFLVEDGKDETLLNEARNKGF”, the “soluble fraction (log2)” value was -0.64.

As for “HMDIYLTAFKTTSNQVTLNGIARSDLIISEFMRDIRDAKLFGEPVLQVIQNKNLNNVQARVFELVVPL”, the “soluble fraction (log2)” value is -0.399.

For the sequence “HMDKATMRWEQIEKFLETHPYIMNADVRALFNVSAATANRILATLTTEGKLVKYREGGHWAYKY”, the “soluble fraction (log2)” value is -0.217.

With “HMDKELILLWDRVKSKVWQMDIQDSQVANWFQRNYHLTVRLRDFDPPVPPDKFTAEQLASFIKDIERHT”, the “soluble fraction (log2)” value was -0.000327.

With “HMDKGMQTMIDNLHKNTGKTLEEWIALVNRANFAKHGEVISFLKEKHGLTHGYANLVAHRLK”, the “soluble fraction (log2)” value was -0.361.

On to “HMDKINQEAIEDEAGLWLAKIDGRQLAQEEVRELIAWMRRSDFHREYLITLARQWDGMAALNKLATLFP”, for which the “soluble fraction (log2)” value was -1.4.

Turning to “HMDKLFNRQTLGGVELTQKQIEDLNAGKAIFVEGMQRKDGEVFSSYVKLDEATGRPSYTRYNPDSP”, the “soluble fraction (log2)” value was found to be 0.0109.

For the sequence “HMDKLSYALGLSMGHNFLGSGIKSLNVEDFAKGVEAVYKQEKPEISFDEAKKIINEFFSNLQDEIAE”, the “soluble fraction (log2)” value is -1.33.

Take “HMDKNLQYADTPKGKLREYIKNLPNGSTVNRQKLAEEFGIKKQSMGTVTEVFQEFPDKNFKFVNP”: the “soluble fraction (log2)” value is -0.157.

Take “HMDKPVIEDVSFDDLAYMVGERVIIRTHLRSTRDGELKSFNRAGILVSLRNRPGMELEIPRSTVASAQVVW”: the “soluble fraction (log2)” value is -0.744.

As to “HMDKQEKIHKKKIIILEALKRLLQNDVYSRITVQAVADEAGFSKGGLLHYFPTKEEMYIEFMEY”, the “soluble fraction (log2)” value amounted to 0.092.

For the sequence “HMDKRYYYRILGLVGEPTRDQIEAAYETRIAKLRSSDYGDDPLYARRKISEVTMAYKVLTGS”, the “soluble fraction (log2)” value is 0.139.

For “HMDKSFLQSLHLIALGIVKNQMDPWELVNGWVEYYLKNKDKYIDHPNLKAVAVLKMKGLFIDHFRKS”, the “soluble fraction (log2)” value is -2.21.
